T1: Cim5 (yeast, UniProt P33299 1-467)
T1 construct: Endogenous protein in yeast extracts, detected by immunoblot as part of the proteasome complex
T1 sequence (looked up): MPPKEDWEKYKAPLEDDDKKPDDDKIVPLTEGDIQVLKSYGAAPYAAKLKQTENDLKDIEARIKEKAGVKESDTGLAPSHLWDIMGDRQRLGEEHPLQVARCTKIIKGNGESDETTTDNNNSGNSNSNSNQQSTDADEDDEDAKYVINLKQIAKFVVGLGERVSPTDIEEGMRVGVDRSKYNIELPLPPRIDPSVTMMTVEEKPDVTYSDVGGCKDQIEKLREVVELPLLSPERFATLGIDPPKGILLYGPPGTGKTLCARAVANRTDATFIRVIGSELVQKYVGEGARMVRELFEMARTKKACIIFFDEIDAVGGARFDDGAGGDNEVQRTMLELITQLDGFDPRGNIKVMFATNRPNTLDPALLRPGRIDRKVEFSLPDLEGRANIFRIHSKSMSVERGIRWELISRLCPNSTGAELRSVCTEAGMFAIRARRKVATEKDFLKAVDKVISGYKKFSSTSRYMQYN

T2: Cim3 (yeast, UniProt Q01939 2-405)
T2 construct: Endogenous protein in yeast extracts, detected by immunoblot as part of the proteasome complex; also called Sug1
T2 sequence (looked up): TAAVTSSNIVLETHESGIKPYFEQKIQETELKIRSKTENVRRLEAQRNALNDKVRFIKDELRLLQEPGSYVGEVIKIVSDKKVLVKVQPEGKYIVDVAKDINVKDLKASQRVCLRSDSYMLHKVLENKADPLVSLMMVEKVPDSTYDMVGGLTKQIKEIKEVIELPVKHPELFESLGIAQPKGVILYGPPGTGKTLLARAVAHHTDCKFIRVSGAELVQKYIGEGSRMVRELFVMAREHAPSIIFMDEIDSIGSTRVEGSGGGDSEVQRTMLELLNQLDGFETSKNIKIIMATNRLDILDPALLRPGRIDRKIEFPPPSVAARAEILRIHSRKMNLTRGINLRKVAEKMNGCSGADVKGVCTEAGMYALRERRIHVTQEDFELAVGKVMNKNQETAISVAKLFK


Key:
Pre1-FLAG (yeast) = Pre1-FLAG (yeast) (UniProt P22141); experiment: co-immunoprecipitation on FLAG-agarose; amount left on the beads after 18 hours at 4° C.
Pre1-FLAG (yeast), sequence (P22141 whole entry): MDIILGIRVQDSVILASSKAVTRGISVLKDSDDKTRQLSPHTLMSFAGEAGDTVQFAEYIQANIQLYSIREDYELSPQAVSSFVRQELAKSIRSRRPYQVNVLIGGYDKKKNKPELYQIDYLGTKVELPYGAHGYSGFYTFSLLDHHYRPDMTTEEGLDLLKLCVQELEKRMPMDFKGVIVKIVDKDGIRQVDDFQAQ

Cim5 = target: T1, Cim5; experiment: GST pull-down from yeast extracts, Cim3 and Cim5 immunoblot (FIG. 13A, lane 5)
Protocol: (§1) GST linked proteins were expressed in yeast and purified on glutathione-SEPHAROSE. Proteins retained on the beads were resolved in SDS-polyacrylamide gels, transferred to nitrocellulose, and incubated with antisera specific to proteasome subunits Cim3 and Cim5. The blot was developed by enhanced chemiluminescence ([…]). […] Yeast strains expressing the GST linked proteins as well as Pre1-FLAG, FIG. 13B. The blot was developed with anti-FLAG antiserum (KODAK). The position of molecular weight markers are indicated.
(§2) Extracts were incubated with glutathione-SEPHAROSE, and bound proteins separated in a SDS-polyacrylamide gel, transferred to nitrocellulose and analyzed by immunological methods. […] The interacting proteins were analyzed via western blot analysis with Cim5 antibodies which cross-react with Mss1, a human counterpart of yeast Cim5 (Ghislain, et al. (1993) Nature 366:358-361).

Cim3 = target: T2, Cim3; experiment: as above
Protocol: as §1, §2

| percent of cellular Rad23 precipitated with Pre1-FLAG (Pre1-FLAG (yeast)) [%] | binding result (Cim5) | binding result (Cim3) | Molecule |
| --- | --- | --- | --- |
| 5 |  |  | native Rad23 (from UniProt P32628 1-398) |
|  | no binding | no binding | GST-UbL^HRA (other, The UbL is linked to the C-terminus of GST; also called ubiquitin-like domain of HHR23A linked to GST; not shown: glutathione S-transferase (GST)) MAVTITLKTLQQQTFKIRMEPDETVKVLKEKIEAEKGRDAFPVAGQKLIYAGKILSDDVPIRDYRIDEKNFVVVMVTKTKA |

From patent US20060281118A1 (UNIVERSITY OF MEDICINE AND DENTISTRY OF NEW JERSEY, published 2006)
